The results in this text go back to paper PMC3660597, “Investigation of Specificity Determinants in Bacterial tRNA-Guanine Transglycosylase Reveals Queuine, the Substrate of Its Eucaryotic Counterpart, as Inhibitor” (PLoS ONE, 2013).

Substrate in data set [1]: NCc1c[nH]c2nc(N)[nH]c(=O)c12
The data set can be described thus: [3H]-preQ1 incorporation into tRNA(Tyr), scintillation counting. Format: biochemical, Zymomonas mobilis. Particulars: 15 µM E. coli tRNA(Tyr), 200 mM HEPES pH 7.3, 20 mM MgCl2, 37°C, labelled compound. From the text: [3H]-preQ1 incorporation into tRNA(Tyr), scintillation counting on Z. mobilis Tgt ("wild type" Tgt = Tgt(Tyr106Phe))

Substrate in the data set “purified protein”: Nc1nc2nc[nH]c2c(=O)[nH]1
Kind of data set: purified protein. The class given is biochemical, Zymomonas mobilis. As to conditions: 15 µM E. coli tRNA(Tyr), 200 mM HEPES pH 7.3, 20 mM MgCl2, 37°C, labelled compound.

B1: Z. mobilis Tgt ("wild type" Tgt = Tgt(Tyr106Phe)) (Zymomonas mobilis subsp. mobilis ZM4 = ATCC 31821; V233G/Y106F) (protein)
chain: VEATAQETDRPRFSFSIAAREGKARTGTIEMKRGVIRTPAFMPVGTAATVKALKPETVRATGADIILGNTYHLMLRPGAERIAKLGGLHSFMGWDRPILTDSGGFQVMSLSSLTKQSEEGVTFKSHLDGSRHMLSPERSIEIQHLLGSDIVMAFDECTPYPATPSRAASSMERSMRWAKRSRDAFDSRKEQAENAALFGIQQGSVFENLRQQSADALAEIGFDGYAVGGLAGGEGQDEMFRVLDFSVPMLPDDKPHYLMGVGKPDDIVGAVERGIDMFDCVLPTRSGRNGQAFTWDGPINIRNARFSEDLTPLDSECHCAVCQKWSRAYIHHLIRAGEILGAMLMTEHNIAFYQQLMQKIRDSISEGRFSQFAQDFRARYFARNS
notes: recombinant from pET9d-ZM-Y106F in E. coli BL21(DE3)/pLysS, purified; homodimer; all variants including "wild type" carry Tyr106Phe
With B1, in data set [1], the Michaelis-Menten constant (Km) (usually the concentration of substrate that gives half-maximal velocity) stood at 0.6 ± 0.1 µM and the kcat (in general, the maximal rate divided by the concentration of active sites) is 0.0063 ± 0.0002 s⁻¹. In the data set “purified protein”, the Michaelis constant (Km) stood at 1.0 ± 0.2 µM and the kcat was determined as 0.0046 ± 0.0003 s⁻¹.

B2: Z. mobilis Tgt ("wild type" Tgt = Tgt(Tyr106Phe)) (Zymomonas mobilis subsp. mobilis ZM4 = ATCC 31821; C158V/V233G/Y106F) (protein)
chain: VEATAQETDRPRFSFSIAAREGKARTGTIEMKRGVIRTPAFMPVGTAATVKALKPETVRATGADIILGNTYHLMLRPGAERIAKLGGLHSFMGWDRPILTDSGGFQVMSLSSLTKQSEEGVTFKSHLDGSRHMLSPERSIEIQHLLGSDIVMAFDEVTPYPATPSRAASSMERSMRWAKRSRDAFDSRKEQAENAALFGIQQGSVFENLRQQSADALAEIGFDGYAVGGLAGGEGQDEMFRVLDFSVPMLPDDKPHYLMGVGKPDDIVGAVERGIDMFDCVLPTRSGRNGQAFTWDGPINIRNARFSEDLTPLDSECHCAVCQKWSRAYIHHLIRAGEILGAMLMTEHNIAFYQQLMQKIRDSISEGRFSQFAQDFRARYFARNS
notes: as for B1
For the protein B2, in data set [1], the Km was found to be 13.5 ± 3.1 µM and the kcat came out at 0.001 ± 0.0003 s⁻¹. Moreover, in “purified protein”, the Michaelis-Menten constant (Km) worked out at 2.7 ± 0.3 µM and the catalytic constant (kcat) was determined as 0.0006 ± 0.0001 s⁻¹.

B3: Z. mobilis Tgt ("wild type" Tgt = Tgt(Tyr106Phe)) (Zymomonas mobilis subsp. mobilis ZM4 = ATCC 31821; Y106F) (protein)
chain: VEATAQETDRPRFSFSIAAREGKARTGTIEMKRGVIRTPAFMPVGTAATVKALKPETVRATGADIILGNTYHLMLRPGAERIAKLGGLHSFMGWDRPILTDSGGFQVMSLSSLTKQSEEGVTFKSHLDGSRHMLSPERSIEIQHLLGSDIVMAFDECTPYPATPSRAASSMERSMRWAKRSRDAFDSRKEQAENAALFGIQQGSVFENLRQQSADALAEIGFDGYAVGGLAVGEGQDEMFRVLDFSVPMLPDDKPHYLMGVGKPDDIVGAVERGIDMFDCVLPTRSGRNGQAFTWDGPINIRNARFSEDLTPLDSECHCAVCQKWSRAYIHHLIRAGEILGAMLMTEHNIAFYQQLMQKIRDSISEGRFSQFAQDFRARYFARNS
notes: as for B1
As for B3, in data set [1], the Michaelis constant (Km) came out at 0.9 ± 0.1 µM and the kcat was 0.106 ± 0.0027 s⁻¹. Moreover, in the data set “purified protein”, the Km amounted to 1.2 ± 0.2 µM and the kcat is 0.0558 ± 0.0001 s⁻¹.

B4: Z. mobilis Tgt ("wild type" Tgt = Tgt(Tyr106Phe)) (Zymomonas mobilis subsp. mobilis ZM4 = ATCC 31821; C158V/Y106F) (protein)
chain: VEATAQETDRPRFSFSIAAREGKARTGTIEMKRGVIRTPAFMPVGTAATVKALKPETVRATGADIILGNTYHLMLRPGAERIAKLGGLHSFMGWDRPILTDSGGFQVMSLSSLTKQSEEGVTFKSHLDGSRHMLSPERSIEIQHLLGSDIVMAFDEVTPYPATPSRAASSMERSMRWAKRSRDAFDSRKEQAENAALFGIQQGSVFENLRQQSADALAEIGFDGYAVGGLAVGEGQDEMFRVLDFSVPMLPDDKPHYLMGVGKPDDIVGAVERGIDMFDCVLPTRSGRNGQAFTWDGPINIRNARFSEDLTPLDSECHCAVCQKWSRAYIHHLIRAGEILGAMLMTEHNIAFYQQLMQKIRDSISEGRFSQFAQDFRARYFARNS
notes: as for B1
As to B4, in data set [1], the Km worked out at 16.0 ± 2.4 µM and the kcat worked out at 0.035 ± 0.0008 s⁻¹. Further, in the data set “purified protein”, the Km amounted to 1.4 ± 0.2 µM and the turnover number (kcat) came out at 0.0275 ± 0.0002 s⁻¹.
